Assay results as given in patent US20020102606A1 (published 2002).
Substitutions are numbered along the chain they refer to.

T1: Profilin II amino acids 4-91 (prey) (human, UniProt P35080 4-91)
T1 construct: range 4-91
T1 sequence (looked up): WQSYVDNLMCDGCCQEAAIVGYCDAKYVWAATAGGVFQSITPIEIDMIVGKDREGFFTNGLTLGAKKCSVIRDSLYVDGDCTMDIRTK

T2: p38 gamma amino acids 29-368 (bait) (UniProt P53778 29-367)
T2 construct: range 29-368; also called Protein Kinase p38 gamma; p38 gamma kinase
T2 sequence (looked up): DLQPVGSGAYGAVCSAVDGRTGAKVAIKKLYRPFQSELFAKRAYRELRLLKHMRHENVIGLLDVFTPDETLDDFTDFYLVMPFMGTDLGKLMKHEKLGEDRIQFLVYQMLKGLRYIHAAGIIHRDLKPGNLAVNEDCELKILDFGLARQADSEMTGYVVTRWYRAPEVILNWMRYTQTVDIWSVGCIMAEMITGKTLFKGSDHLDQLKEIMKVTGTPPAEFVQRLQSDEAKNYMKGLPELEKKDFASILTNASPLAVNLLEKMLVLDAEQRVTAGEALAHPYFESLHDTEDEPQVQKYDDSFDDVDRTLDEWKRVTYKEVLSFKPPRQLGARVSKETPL

T3: PRAK NUC 201-1104 K51M, T182D (bait) (UniProt Q8IW41 1-301)
T3 construct: Limits printed as nucleotides only; also called Protein Kinase PRAK
T3 sequence (looked up): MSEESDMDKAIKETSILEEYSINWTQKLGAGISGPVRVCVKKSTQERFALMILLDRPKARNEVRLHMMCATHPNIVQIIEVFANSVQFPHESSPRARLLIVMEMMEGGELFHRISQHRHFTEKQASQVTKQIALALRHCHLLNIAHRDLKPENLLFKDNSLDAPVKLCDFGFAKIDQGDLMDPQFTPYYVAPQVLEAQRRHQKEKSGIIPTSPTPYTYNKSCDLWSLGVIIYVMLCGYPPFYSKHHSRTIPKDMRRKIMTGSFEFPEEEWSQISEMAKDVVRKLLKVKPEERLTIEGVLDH

T4: PRAK NUC 201-1104 K51M (bait) (UniProt Q8IW41 1-301)
T4 construct: Limits printed as nucleotides only; also called Protein Kinase PRAK
T4 sequence (looked up): T3 sequence (looked up) with D182T

T5: PRAK NUC 201-1104 (bait, no mutation) (UniProt Q8IW41 1-301)
T5 construct: Limits printed as nucleotides only; also called Protein Kinase PRAK
T5 sequence (looked up): T3 sequence (looked up) with M51K, D182T

B1: Vimentin amino acids 309-463 (prey) (other, human, UniProt P08670 309-463, looked up)
chain: LRQAKQESTEYRRQVQSLTCEVDALKGTNESLERQMREMEENFAVEAANYQDTIGRLQDEIQNMKEEMARHLREYQDLLNVKMALDIEIATYRKLLEGEESRISLPLPNFSSLNLRETNLDSLPLVDTHSKRTLLIKTVETRDGQVINETSQHHD
notes: range 309-463
B2: Homer-3 NUC 720-1152 (prey) (other, human, UniProt Q9NSC5 210-354, looked up)
chain: AAQWRQQLEAQRAEAERLRQRVAELEAQAASEVTPTGEKEGLGQGQSLEQLEALVQTKDQEIQTLKSQTGGPREALEAAEREETQQKVQDLETRNAELEHQLRAMERSLEEARAERERARAEVGRAAQLLDVSLFELSELREGLA
B3: DLG2 amino acids 294-594 (prey) (other, human, UniProt Q15700 294-594, looked up)
chain: THSYSPPMENHLLSGNNGTLEYKTSLPPISPGRYSPIPKHMLVDDDYTRPPEPVYSTVNKLCDKPASPRHYSPVECDKSFLLSAPYSHYHLGLLPDSEMTSHSQHSTATRQPSMTLQRAVSLEGEPRKVVLHKGSTGLGFNIVGGEDGEGIFVSFILAGGPADLSGELQRGDQILSVNGIDLRGASHEQAAAALKGAGQTVTIIAQYQPEDYARFEAKIHDLREQMMNHSMSSGSGSLRTNQKRSLYVRAMFDYDKSKDSGLPSQGLSFKYGDILHVINASDDEWWQARRVMLEGDSEEMG
notes: range 294-594; also called chapsyn-110
B4: ERF-2 amino acids 7-192 (prey) (other, human, UniProt P47974 7-192, looked up)
chain: SAFYDVDFLCKTEKSLANLNLNNMLDKKAVGTPVAAAPSSGFAPGFLRRHSASNLHALAHPAPSPGSCSPKFPGAANGSSCGSAAAGGPTSYGTLKEPSGGGGTALLNKENKFRDRSFSENGDRSQHLLHLQQQQKGGGGSQINSTRYKTELCRPFEESGTCKYGEKCQFAHGFHELRSLTRHPKY
notes: range 7-192; also called TIS11D
B5: Homer-3 NUC 774-1152 (prey) (other, human, UniProt Q9NSC5 228-354, looked up)
chain: RQRVAELEAQAASEVTPTGEKEGLGQGQSLEQLEALVQTKDQEIQTLKSQTGGPREALEAAEREETQQKVQDLETRNAELEHQLRAMERSLEEARAERERARAEVGRAAQLLDVSLFELSELREGLA
notes: Limits printed as nucleotides only
B6: MLK2 amino acids 398-556 (prey) (enzyme, human, UniProt Q02779 398-556, looked up)
chain: LRSREEELLRAAQEQRFQEEQLRRREQELAEREMDIVERELHLLMCQLSQEKPRVRKRKGNFKRSRLLKLREGGSHISLPSGFEHKITVQASPTLDKRKGSDGASPPASPSIIPRLRAIRLTPVDCGGSSSGSSSGGSGTWSRGGPPKKEELVGGKKKG
notes: range 398-556; also called mixed lineage kinase
B7: Nuclear Mitotic Apparatus Protein 1 (NuMA1) NUC 1395-1713 (prey) (other, human, UniProt Q14980 413-519, looked up)
chain: LQLETLKQEAATLAANNTQLQARVEMLETERGQQEAKLLAERGHFEEEKQQLSSLITDLQSSISNLSQAKEELEQASQAHGARLTAQVASLTSELTTLNATIQQQDQ
notes: range 413-519
B8: Nuclear Mitotic Apparatus Protein 1 (NuMA1) NUC 1394-1711 (prey) (other, human, UniProt Q14980 413-519, looked up)
chain: B7 chain
notes: as for B5
B9: Histone Acetyl Transferase 1 (HAT1) amino acids 334-420 (prey) (enzyme, human, UniProt O14929 334-419, looked up)
chain: ILRLLVTDMSDAEQYRSYRLDIKRRLISPYKKKQRDLAKMRKCLRPEELTNQMNQIEISMQHEQLEESFQELVEDYRRVIERLAQE
notes: range 334-420

What was measured:
Assay in all cases: yeast two-hybrid; prey clone found with the bait of the row
[1] = biological target: T6, MAPKAP-K3 NUC 433-1003 (bait) (UniProt Q16644 114-304)
T6 construct: range 114-304; also called MAP Kinase MAPKAP-K3
Description: (§1) A total human brain (person) cDNA library cloned into the yeast expression vector pACT2 was purchased from Clontech (human brain […] cDNA, cat. # HL4004AH), transformed into the yeast strain J692 (genotype of this strain: Mat a, ade2, his3, leu2, trp1, URA3::GAL1-lacZ LYS2::GAL1-HIS3 ga14del ga180del cyhR2), and selected for the ability to drive leucine synthesis. In these yeast cells, each cDNA is expressed as a fusion protein with the transcription activation domain of the transcription factor Ga14 (amino acids 768 to 881) and a 9 amino acid hemagglutinin epitope tag. J693 cells (Mat α type) expressing the bait were then mated with J692 cells (Mat a type) expressing proteins from the brain library. The resulting diploid yeast cells expressing proteins interacting with the bait protein were selected for the ability to synthesize tryptophan, leucine, histidine, and β-galactosidase. DNA was prepared from each clone, transformed by electroporation into E. coli strain KC8 (Clontech KC8 electrocompetent cells, cat. # C2023-1), and the cells were selected on ampicillin-containing plates in the absence of either tryptophane (selection for the bait plasmid) or leucine (selection for the brain library plasmid). DNA for both plasmids was prepared and sequenced by di-deoxynucleotide chain termination method. The identity of the bait cDNA insert was confirmed and the cDNA insert from the brain library plasmid was identified using BLAST program against public nucleotides and protein databases. Plasmids from the brain library (preys) were then individually transformed into yeast cells together with a plasmid driving the synthesis of lamin fused to the Ga14 DNA binding domain. Clones that gave a positive signal after β-galactosidase assay were considered false-positives and discarded. Plasmids for the remaining clones were transformed into yeast cells together with plasmid for the original bait. Clones that gave a positive signal after β-galactosidase assay were considered true positives.
(§2) The “AA” refers to the amino acids of the bait or prey. The “NUC” refers to the nucleotides of the bait or prey.

[2] = biological target: T1, Profilin II amino acids 4-91 (prey)
Description: as §1, §2

[3] = biological target: T2, p38 gamma amino acids 29-368 (bait)
Description: as §1, §2

[4] = biological target: T3, PRAK NUC 201-1104 K51M, T182D (bait)
Description: as §1, §2

[5] = biological target: T4, PRAK NUC 201-1104 K51M (bait)
Description: as §1, §2

[6] = biological target: T5, PRAK NUC 201-1104 (bait, no mutation)
Description: as §1, §2

T6 sequence (Q16644 114-304 limits assumed): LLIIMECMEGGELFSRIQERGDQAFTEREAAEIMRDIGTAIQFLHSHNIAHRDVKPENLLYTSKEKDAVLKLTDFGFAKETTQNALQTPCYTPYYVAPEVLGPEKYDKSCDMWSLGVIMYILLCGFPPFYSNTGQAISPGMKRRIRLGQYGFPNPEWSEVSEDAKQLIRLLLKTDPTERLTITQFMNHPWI

Binder | binding result [1] | binding result [4] | other results
B1 | binds |  | 
B2 | binds |  | 
MMEDDGQPRTLYVGNLSRDVTEVLILQLFSQIGPCKSCKMITEHTSND (other) [TIAR amino acids 1-48 (bait)] |  |  | binding result [2]: binds
B3 |  |  | binding result [3]: binds
B4 | binds |  | 
B5 |  | binds | 
B6 |  |  | binding result [5]: binds; binding result [6]: binds
B7 | binds |  | 
B8 |  | binds | 
B9 |  | binds | 
